According to patent publication US20200206358A1, “LONG-CIRCULATING THERANOSTIC AGENTS FOR DIAGNOSING AND IMAGING METASTATIC TUMORS” (The Board of Trustees of the Leland Stanford Junior …, priority 2018, published 2020):
Non-standard residues stand in square brackets, D forms with d. Residues, ends and D or L forms follow the SMILES beside them. ξ: configuration not given here. *: point of attachment. X1 = Cc1cc(-c2ccc(N*)c(C)c2)ccc1N=Nc1ccc2c(S(=O)(=O)O)cc(S(=O)(=O)O)c(N)c2c1O; DOTA = O=C(O)CN1CCN(CC(=O)O)CCN(CC(=O)*)CCN(CC(=O)O)CC1; ξE = NC(CCC(=O)O)C(=O)O

Legend:
[1] = tested on: 143B tumor; assay: microPET/CT imaging, time activity curves in 143B tumor bearing nude mice; type: in vivo
Method: (§1) The tumor uptake of [^64Cu]DOTA-EB-TMTP1 was increased as time goes by, and reached the plateau of 6.5±0.8% ID/g at 8 h after injection.

[2] = as above; type: in vivo; settings: mouse, in vivo, iv; 8 h after i.v. injection, 143B tumor bearing nude mice; read-out: tumor uptake (plateau, PET time activity curve)
Method: as §1

[3] = in vivo; design: species or system nude mice; settings: nude, mouse, iv
Excerpt: Tumor uptake was 6.7[…]% ID/g.

[4] = cell uptake of [^64Cu]DOTA-EB-TMTP1; type: cell-based; settings: n=4, mean±SD; uptake ratio increased with time
[5] = tested on: 143B cells; assay: inhibition of [^64Cu]DOTA-EB-TMTP1 binding to 143B cells by TMTP1; settings: TMTP1 competing with [^64Cu]DOTA-EB-TMTP1 on 143B cells; unit inferred
[6] = tested on: highly metastatic tumor cells; settings: literature, PLOS One (2012) 7(9): e42685; cited from earlier work

IC50 [5] [nM]	Compound	tumor uptake (plateau, PET time activity curve) ([1]; 8 h after i.v. injection, 143B tumor bearing nude mice)	circulation time in the body ([1]; mouse, in vivo)	pharmacokinetic properties ([1]; mouse, in vivo)	tissue uptake at 8 h [2] [%ID/g]	tissue uptake at 48 h [3] [%ID/g]	time at which cell uptake ratio reached the peak [4] [min]	affinity for a series of highly metastatic tumor cells [6]
	Cc1cc(-c2ccc(NC(=O)CCC(NC(=O)CN3CCN(CC(=O)O)CCN(CC(=O)O)CCN(CC(=O)O)CC3)C(=O)NCC(=O)N[C@@H](CC(N)=O)C(=O)N[C@H](C(=O)N[C@H](C(=O)N[C@@H](CCCNC(=N)N)C(=O)N[C@@H](CCC(N)=O)C(=O)O)C(C)C)C(C)C)c(C)c2)ccc1N=Nc1ccc2c(S(=O)(=O)O)cc(S(=O)(=O)O)c(N)c2c1O (some centres unmarked) [[^64Cu]DOTA-EB-TMTP1, metal not drawn] ({DOTA}-[ξE](X1)GNVVRQ-OH)	6.5%±0.8 % ID/g	long circulation time	favorable pharmacokinetic properties	6.5 ± 0.8	6.7	45	
211	NVVRQ [TMTP1]							high affinity
